Experimental data from the supplement of paper PMC7125110.
± gives the standard error. For some of these results: This sample holds only a part of the variants without activity.

B1: glmS ribozyme (parent)
chain: AUAAAAGCGCCAGAACUACAGAAAUGUAGUUGACGAGGAGGAGGUUUAUCGAAUUUUCGGCGGAUGCCUCCAAA

How the values were obtained:
Settings in all cases: with glucosamine-6-phosphate
[1] = variants of: B1; assay: kcat; higher = faster cleavage; RNA array
Procedure, shortened: (§1)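 Barcoded ribozyme variants on sequenced MiSeq chips were transcribed in situ by E. coli RNA polymerase and followed at 37 °C through a hybridised Cy3 probe. Glucosamine-6-phosphate at 40 μM to 10 mM in HEPES/KCl/Mg(OAc)2 buffer was flowed in, and tiles were imaged over ~14 h. Signals were normalised to baseline and to non-cleaving reference variants, and per-tile medians were fit to one- or two-exponential decays to give kobs. Weighted Michaelis–Menten fits across concentrations gave kcat and KM.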

[2] = variants of: B1; assay: KM; higher = weaker cofactor use; RNA array
Procedure, shortened: as §1

[3] = variants of: B1; assay: self-cleavage kobs at 40 uM GlcN6P; higher = faster cleavage; RNA array
Procedure, shortened: as §1

[4] = variants of: B1; assay: self-cleavage kobs at 160 uM GlcN6P; higher = faster cleavage; RNA array
Procedure, shortened: as §1

[5] = variants of: B1; assay: self-cleavage kobs at 640 uM GlcN6P; higher = faster cleavage; RNA array
Procedure, shortened: as §1

[6] = variants of: B1; assay: self-cleavage kobs at 2500 uM GlcN6P; higher = faster cleavage; RNA array
Procedure, shortened: as §1

[7] = variants of: B1; assay: self-cleavage kobs at 10000 uM GlcN6P; higher = faster cleavage; RNA array
Procedure, shortened: as §1

Variant	kcat [1] [s⁻¹]	KM [2] [µM]	self-cleavage kobs at 40 uM GlcN6P [3] [s⁻¹]	self-cleavage kobs at 160 uM GlcN6P [4] [s⁻¹]	self-cleavage kobs at 640 uM GlcN6P [5] [s⁻¹]	self-cleavage kobs at 2500 uM GlcN6P [6] [s⁻¹]	self-cleavage kobs at 10000 uM GlcN6P [7] [s⁻¹]
A53C C71U	0.00685 ± 0.001	1760 ± 360	0.000156 ± 2.5e-05	0.000539 ± 0.0001	0.00167 ± 0.00036	0.00474 ± 0.00067	0.00509 ± 0.0011
A6C A15C	3.27e-05 ± 1.8e-06	–	–	–	–	–	–
A12C A36U	–	56.2 ± 26	–	–	–	–	–
A14U G59U	< 1e-05	–	–	< 1e-05	–	< 1e-05	–
U46C U65A	0.00399 ± 0.0019	–	7.93e-05 ± 2.3e-05	–	0.000444 ± 0.00012	0.00143 ± 0.00037	0.00295 ± 0.00065
C11U U49C G51U	–	–	< 1e-05	–	–	–	–
U65A C68A	8.88e-05 ± 1.5e-05	–	–	5.78e-05 ± 1.6e-05	8.74e-05 ± 1.1e-05	0.00015 ± 2.2e-05	7.53e-05 ± 8.6e-06
A12C A33C A39C	–	–	< 1e-05	–	–	–	–
U30C C70U	0.000529 ± 0.00014	1890 ± 790	–	6.03e-05 ± 7.8e-06	0.000125 ± 1e-05	0.000261 ± 2.9e-05	0.000536 ± 5.9e-05
G29U U47A	0.00313 ± 0.00095	1350 ± 650	9.83e-05 ± 1.2e-05	–	0.000972 ± 0.00015	0.00104 ± 0.00036	0.0033 ± 0.00035
G7A U46G	–	–	< 1e-05	< 1e-05	< 1e-05	–	–
C8A U49C	< 1e-05	–	–	–	< 1e-05	< 1e-05	–
U30A G37C U65C	–	–	< 1e-05	–	–	< 1e-05	–
A14G C71A	–	–	0.000515 ± 6.3e-05	0.000688 ± 0.00011	0.00337 ± 0.00085	0.0123 ± 0.0037	–
A33C C58G	1.09e-05 ± 3.4e-06	–	–	–	–	–	–
G13A G59U	–	–	< 1e-05	–	–	–	–
U49C C58G	< 1e-05	–	–	–	–	–	< 1e-05
U30C U54G	0.000209 ± 1.3e-05	411 ± 120	–	9.02e-05 ± 4.2e-05	0.000118 ± 2.8e-05	0.00018 ± 3.5e-05	0.000203 ± 2.5e-05
G7C G32U C34A G35C	–	–	< 1e-05	–	–	–	–
A6U A12G C16U G38A U54A C68A	–	–	8.86e-05 ± 3.6e-05	–	0.000335 ± 0.0001	0.000395 ± 0.00011	8.53e-05 ± 1.8e-05
A12C U31G	0.00416 ± 0.00048	2340 ± 410	8.48e-05 ± 1.8e-05	0.000245 ± 7.1e-05	0.00081 ± 0.00015	0.00237 ± 0.00075	0.00339 ± 0.00051
G13A G37U A39G G41C A42C G43A	–	–	< 1e-05	–	–	–	< 1e-05

Variant	kcat [1] [s⁻¹]	KM [2] [µM]	self-cleavage kobs at 40 uM GlcN6P [3] [s⁻¹]	self-cleavage kobs at 160 uM GlcN6P [4] [s⁻¹]	self-cleavage kobs at 640 uM GlcN6P [5] [s⁻¹]	self-cleavage kobs at 2500 uM GlcN6P [6] [s⁻¹]	self-cleavage kobs at 10000 uM GlcN6P [7] [s⁻¹]
A12U C16G U56G G59U	–	–	< 1e-05	–	–	–	–
G41U G60U A64U	–	–	< 1e-05	< 1e-05	–	–	< 1e-05
G41A U45G	0.000391 ± 0.00013	–	2.84e-05 ± 1.3e-05	3e-05 ± 1.3e-05	0.000144 ± 2.4e-05	0.000565 ± 0.0001	0.000304 ± 5.2e-05
A12G G35U C50U	–	–	< 1e-05	–	–	–	–
G9U G43U	–	–	< 1e-05	–	< 1e-05	< 1e-05	< 1e-05
A12U G60U G66C C68U	< 1e-05	–	–	–	–	–	< 1e-05
C10U C11U	3.12e-05 ± 1.5e-05	–	< 1e-05	< 1e-05	–	–	–
U31A U57G	4.33e-05 ± 3.3e-06	2970 ± 780	–	–	–	–	3.33e-05 ± 1.1e-05
U49C C50G	< 1e-05	–	< 1e-05	< 1e-05	–	–	< 1e-05
C8U U47C	–	–	< 1e-05	< 1e-05	< 1e-05	< 1e-05	< 1e-05
G40C G43C	–	–	< 1e-05	< 1e-05	–	< 1e-05	< 1e-05
G40C G43A	–	–	< 1e-05	–	–	–	< 1e-05
C8U C16U C50G G60A G66U	–	–	0.000197 ± 6.5e-05	9.7e-05 ± 4.4e-05	–	–	0.000101 ± 2.7e-05
G13A U47A	0.000438 ± 6e-05	3210 ± 750	–	–	7.42e-05 ± 1.6e-05	0.000178 ± 3.2e-05	0.000349 ± 6.5e-05
A53G C67G	0.007 ± 0.0028	–	0.000155 ± 1.6e-05	0.000304 ± 4.6e-05	0.00225 ± 0.00035	0.00466 ± 0.00096	0.00539 ± 0.00069
C11U A52G	0.000164 ± 8e-06	1690 ± 270	–	–	4.15e-05 ± 1e-05	0.000109 ± 1.8e-05	0.000139 ± 1.1e-05
G37A G40C A48U G63A	–	–	< 1e-05	–	–	–	–
A14G U30A A39G A53C	–	–	9.97e-05 ± 2.6e-05	–	–	–	0.00799 ± 0.0023
G41A G43C U49A C50G C58A	–	–	< 1e-05	–	–	–	–
C11A G29U	3.97e-05 ± 4.4e-06	–	–	–	–	3.72e-05 ± 1.1e-05	3.56e-05 ± 8.9e-06
A6U G41C	–	–	< 1e-05	< 1e-05	–	< 1e-05	< 1e-05
A14C G38C G44A G63U C70G	–	–	< 1e-05	–	–	–	–

Variant	kcat [1] [s⁻¹]	KM [2] [µM]	self-cleavage kobs at 40 uM GlcN6P [3] [s⁻¹]	self-cleavage kobs at 160 uM GlcN6P [4] [s⁻¹]	self-cleavage kobs at 640 uM GlcN6P [5] [s⁻¹]	self-cleavage kobs at 2500 uM GlcN6P [6] [s⁻¹]	self-cleavage kobs at 10000 uM GlcN6P [7] [s⁻¹]
C10G C16U U49C	–	–	< 1e-05	–	< 1e-05	–	–
C10U G66U	< 1e-05	–	–	< 1e-05	< 1e-05	–	< 1e-05
A12C A23C U54G C70A	0.00013 ± 1.8e-05	–	8.19e-05 ± 2.8e-05	–	0.000146 ± 2.1e-05	0.000103 ± 1.9e-05	0.000154 ± 2.8e-05
C16A U31C A42G G44U C70G	–	–	< 1e-05	–	–	–	–
A36C A48G	–	–	< 1e-05	–	–	–	< 1e-05
G9C C34A A42U G43A	–	–	< 1e-05	–	–	–	–
U47G U56C A64G	0.000113 ± 1.2e-05	1500 ± 480	–	–	2.82e-05 ± 1.4e-05	7.42e-05 ± 1.5e-05	9.62e-05 ± 1.7e-05
G7U G37C C61A C68G C70U	–	–	0.000181 ± 5.8e-05	–	–	–	9.36e-05 ± 2.7e-05
C61A C71U	1.05e-05 ± 3.5e-06	–	–	–	< 1e-05	–	–
C34U G40U	–	–	< 1e-05	< 1e-05	–	< 1e-05	< 1e-05
C8A U30G	–	–	< 1e-05	–	< 1e-05	< 1e-05	< 1e-05
C11U C61U	< 1e-05	122 ± 8.2	< 1e-05	–	< 1e-05	–	< 1e-05
A64C C67U	–	657 ± 190	–	–	–	–	–
C58G G62U C68A	–	–	4.88e-05 ± 1.8e-05	–	–	–	–
G29C A36U	–	–	< 1e-05	–	< 1e-05	–	–
A6G G62U	–	–	< 1e-05	< 1e-05	< 1e-05	< 1e-05	< 1e-05
C16A G38U	< 1e-05	–	–	–	–	< 1e-05	–
G7U G35U	–	–	< 1e-05	< 1e-05	–	< 1e-05	< 1e-05
G29U C50U	1.34e-05 ± 9.1e-07	3520 ± 700	–	< 1e-05	–	–	–
A12C U54G G66U	0.00175 ± 0.00085	–	5.6e-05 ± 1.7e-05	8.77e-05 ± 1.3e-05	0.000245 ± 5.3e-05	0.000495 ± 0.00014	0.00164 ± 0.00028
G9A G38A	–	–	< 1e-05	–	–	–	< 1e-05
C8A U46A	–	–	< 1e-05	< 1e-05	< 1e-05	< 1e-05	< 1e-05

Variant	kcat [1] [s⁻¹]	KM [2] [µM]	self-cleavage kobs at 40 uM GlcN6P [3] [s⁻¹]	self-cleavage kobs at 160 uM GlcN6P [4] [s⁻¹]	self-cleavage kobs at 640 uM GlcN6P [5] [s⁻¹]	self-cleavage kobs at 2500 uM GlcN6P [6] [s⁻¹]	self-cleavage kobs at 10000 uM GlcN6P [7] [s⁻¹]
U57A G59A	1.13e-05 ± 3e-06	–	–	–	< 1e-05	–	–
U56G C68A	2.79e-05 ± 2.6e-06	–	–	–	–	2.72e-05 ± 1.3e-05	–
A15U C68U	0.000466 ± 3e-05	1610 ± 210	1.92e-05 ± 9.6e-06	4.94e-05 ± 7.4e-06	0.000127 ± 9.9e-06	0.000277 ± 2.2e-05	0.000409 ± 2.7e-05
G37A U46G	0.000363 ± 0.00014	–	–	4.31e-05 ± 1.7e-05	0.000102 ± 1.4e-05	0.000159 ± 2.3e-05	0.000421 ± 6.2e-05
A12G C70G	0.000171 ± 1.5e-05	856 ± 240	–	–	7.9e-05 ± 1e-05	0.000109 ± 1.6e-05	0.000166 ± 1.6e-05
G44A C70A	–	–	< 1e-05	< 1e-05	–	< 1e-05	< 1e-05
A23C C70A	0.000172 ± 3.1e-05	139 ± 68	3.76e-05 ± 1.2e-05	–	–	0.000302 ± 0.0001	0.000156 ± 3.2e-05
A48U U65G	0.000116 ± 1e-05	1390 ± 430	< 1e-05	–	3.11e-05 ± 9.7e-06	8.19e-05 ± 1e-05	9.9e-05 ± 9.7e-06
C8G A15U G62C	–	–	< 1e-05	–	< 1e-05	–	–
C10G U46G	–	–	< 1e-05	< 1e-05	< 1e-05	< 1e-05	–
A12C C68U	0.000589 ± 4.7e-05	1370 ± 220	–	6.12e-05 ± 8.3e-06	0.00018 ± 1.7e-05	0.000436 ± 3.7e-05	0.000494 ± 3.6e-05
G13U A52U C70G	–	–	< 1e-05	–	–	–	–
A52C U65G	–	197 ± 67	–	–	–	–	–
C10U G40A C67A	–	–	< 1e-05	–	–	–	< 1e-05
G40U C58A	0.000609 ± 4.4e-05	–	< 1e-05	< 1e-05	–	–	3.81e-05 ± 9.5e-06
U31A G63U U69G	3.2e-05 ± 9.9e-06	–	–	–	–	–	–
C16U U30A C58G A73U	–	–	< 1e-05	–	–	–	–
C11G G59C	–	–	5.21e-05 ± 2.3e-05	–	–	–	0.000764 ± 0.00016
U54G U56A G63U	–	1560 ± 740	–	–	–	–	–
G7C G41U	–	–	< 1e-05	< 1e-05	–	< 1e-05	< 1e-05
